Earlier results, collected in patent US20200069786A1, “COMPOSITION AND PROCESS FOR PREPARING VACCINE” (TREOS BIO ZRT., priority 2018, published 2020).
Like-named read-outs stand apart in the source and are kept apart here.

System: TSA
Details: for TSA Expression Rate (ER): BREAST
[1] = TSA expression rate in PROSTATE cancer
[2] = TSA expression rate in MELANOMA
[3] = TSA expression rate in LEUKEMIAS

Molecule	Expression Rate (ER) % [1]	Expression Rate (ER) % [2]	also measured
SPATA19 (protein, UniProt Q7Z5L4 25-167, looked up) Spermatogenesis-associated …: SSDIDVVESEAVSVLHHWLKKTEEEASRGIKEKLSINHPSQGVREKMSTDSPPTHGQDIHVTRDVVKHHLSKSDLLANQSQEVLEERTRIQFIRWSHTRIFQVPSEMTEDIMRDRIEQVRRSISRLTDVSAQDFSMRPSSSDC	88%	–	–
PAGE4 (protein, UniProt O60829 1-102, looked up) P antigen family member 4: MSARVRSRSRGRGDGQEAPDVVAFVAPGESQQEEPPTDNQDIEPGQEREGTPPIEERKVEGDCQEMDLEKTRSERGDGSDVKEKTPPNPKHAKTKEAGDGQP	100%	–	Expression Rate (ER) % (TSA expression rate in CRC): 33%
NR6A1 (protein, UniProt Q15406 1-480, looked up) Nuclear receptor subfamily 6 …: MERDEPPPSGGGGGGGSAGFLEPPAALPPPPRNGFCQDELAELDPGTISVSDDRAEQRTCLICGDRATGLHYGIISCEGCKGFFKRSICNKRVYRCSRDKNCVMSRKQRNRCQYCRLLKCLQMGMNRKAIREDGMPGGRNKSIGPVQISEEEIERIMSGQEFEEEANHWSNHGDSDHSSPGNRASESNQPSPGSTLSSSRSVELNGFMAFREQYMGMSVPPHYQYIPHLFSYSGHSPLLPQQARSLDPQSYSLIHQLLSAEDLEPLGTPMLIEDGYAVTQAELFALLCRLADELLFRQIAWIKKLPFFCELSIKDYTCLLSSTWQELILLSSLTVYSKQIFGELADVTAKYSPSDEELHRFSDEGMEVIERLIYLYHKFHQLKVSNEEYACMKAINFLNQDIRGLTSASQLEQLNKRYWYICQDFTEYKYTHQPNRFPDLMMCLPEIRYIAGKMVNVPLEQLPLLFKVVLHSCKTSVGKE	25%	–	–
PRSS55 (protein, UniProt Q6UWB4 19-352, looked up) Serine protease 55: GPRTPLPEAGVAILGRARGAHRPQPPHPPSPVSECGDRSIFEGRTRYSRITGGMEAEVGEFPWQVSIQARSEPFCGGSILNKWWILTAAHCLYSEELFPEELSVVLGTNDLTSPSMEIKEVASIILHKDFKRANMDNDIALLLLASPIKLDDLKVPICLPTQPGPATWRECWVAGWGQTNAADKNSVKTDLMKAPMVIMDWEECSKMFPKLTKNMLCAGYKNESYDACKGDSGGPLVCTPEPGEKWYQVGIISWGKSCGEKNTPGIYTSLVNYNLWIEKVTQLEGRPFNAEKRRTSVKQKPMGSPVSGVPEPGSPRSWLLLCPLSHVLFRAILY	1%	–	–
XAGE-2 (protein, UniProt Q96GT9 1-111, looked up) X antigen family member 2: MSWRGRSTYRPRPRRSLQPPELIGAMLEPTDEEPKEEKPPTKSRNPTPDQKREDDQGAAEIQVPDLEADLQELCQTKTGDGCEGGTDVKGKILPKAEHFKMPEAGEGKSQV	–	14%	Expression Rate (ER) % (TSA expression rate in HEAD and NECK): 6%; Expression Rate (ER) % (TSA expression rate in PEDIATRIC): 14%
ODF2 (protein, UniProt Q5BJF6 1-829, looked up) Outer dense fiber protein 2: MSASSSGGSPRFPSCGKNGVTSLTQKKVLRAPCGAPSVTVTKSHKRGMKGDTVNVRRSVRVKTKVPWMPPGKSSARPVGCKWENPPHCLEITPPSSEKLVSVMRLSDLSTEDDDSGHCKMNRYDKKIDSLMNAVGCLKSEVKMQKGERQMAKRFLEERKEELEEVAHELAETEHENTVLRHNIERMKEEKDFTILQKKHLQQEKECLMSKLVEAEMDGAAAAKQVMALKDTIGKLKTEKQMTCTDINTLTRQKELLLQKLSTFEETNRTLRDLLREQHCKEDSERLMEQQGALLKRLAEADSEKARLLLLLQDKDKEVEELLQEIQCEKAQAKTASELSKSMESMRGHLQAQLRSKEAENSRLCMQIKNLERSGNQHKAEVEAIMEQLKELKQKGDRDKESLKKAIRAQKERAEKSEEYAEQLHVQLADKDLYVAEALSTLESWRSRYNQVVKEKGDLELEIIVLNDRVTDLVNQQQTLEEKMREDRDSLVERLHRQTAEYSAFKLENERLKASFAPMEDKLNQAHLEVQQLKASVKNYEGMIDNYKSQVMKTRLEADEVAAQLERCDKENKILKDEMNKEIEAARRQFQSQLADLQQLPDILKITEAKLAECQDQLQGYERKNIDLTAIISDLRSRIEHQGDKLEMAREKHQASQKENKQLSLKVDELERKLEATSAQNIEFLQVIAKREEAIHQSQLRLEEKTRECGTLARQLESAIEDARRQVEQTKEHALSKERAAQNKILDLETQLSRTKTELSQLRRSRDDADRRYQSRLQDLKDRLEQSESTNRSMQNYVQFLKSSYANVFGDGPYSTFLTSSPIRSRSPPA	10%	–	–
TEX14 (protein, UniProt Q8IWB6 1-1497, looked up) Inactive …: MSRAVRLPVPCPVQLGTLRNDSLEAQLHEYVKQGNYVKVKKILKKGIYVDAVNSLGQTALFVAALLGLRKFVDVLVDYGSDPNHRCFDGSTPVHAAAFSGNQWILSKLLDAGGDLRLHDERGQNPKTWALTAGKERSTQIVEFMQRCASHMQAIIQGFSYDLLKKIDSPQRLVYSPSWCGGLVQGNPNGSPNRLLKAGVISAQNIYSFGFGKAMPWFQFYLTGATQMAYLGSLPVIGEKEVIQADDEPTFSFFSGPYMVMTNLVWNGSRVTVKELNLPTHPHCSRLRLADLLIAEQEHSSKLRHPYLLQLMAVCLSQDLEKTRLVYERITIGTLFSVLHERRSQFPVLHMEVIVHLLLQISDALRYLHFQGFIHRSLSSYAVHIISPGEARLTNLEYMLESEDRGVQRDLTRVPLPTQLYNWAAPEVILQKAATVKSDIYSFSMIMQEILTDDIPWKGLDGSVVKKAVVSGNYLEADVRLPKPYYDIVKSGIHVKQKDRTMNLQDIRYILKNDLKDFTGAQRTQPTESPRVQRYGLHPDVNVYLGLTSEHPRETPDMEIIELKEMGSQPHSPRVHSLFTEGTLDPQAPDPCLMARETQNQDAPCPAPFMAEEASSPSTGQPSLCSFEINEIYSGCLILEDDIEEPPGAASSLEADGPNQVDELKSMEEELDKMEREACCFGSEDESSSKAETEYSFDDWDWQNGSLSSLSLPESTREAKSNLNNMSTTEEYLISKCVLDLKIMQTIMHENDDRLRNIEQILDEVEMKQKEQEERMSLWATSREFTNAYKLPLAVGPPSLNYIPPVLQLSGGQKPDTSGNYPTLPRFPRMLPTLCDPGKQNTDEQFQCTQGAKDSLETSRIQNTSSQGRPRESTAQAKATQFNSALFTLSSHRQGPSASPSCHWDSTRMSVEPVSSEIYNAESRNKDDGKVHLKWKMEVKEMAKKAATGQLTVPPWHPQSSLTLESEAENEPDALLQPPIRSPENTDWQRVIEYHRENDEPRGNGKFDKTGNNDCDSDQHGRQPRLGSFTSIRHPSPRQKEQPEHSEAFQASSDTLVAVEKSYSHQSMQSTCSPESSEDITDEFLTPDGEYFYSSTAQENLALETSSPIEEDFEGIQGAFAQPQVSGEEKFQMRKILGKNAEILPRSQFQPVRSTEDEQEETSKESPKELKEKDISLTDIQDLSSISYEPDSSFKEASCKTPKINHAPTSVSTPLSPGSVSSAASQYKDCLESITFQVKTEFASCWNSQEFIQTLSDDFISVRERAKKLDSLLTSSETPPSRLTGLKRLSSFIGAGSPSLVKACDSSPPHATQRRSLPKVEAFSQHHIDELPPPSQELLDDIELLKQQQGSSTVLHENTASDGGGTANDQRHLEEQETDSKKEDSSMLLSKETEDLGEDTERAHSTLDEDLERWLQPPEESVELQDLPKGSERETNIKDQKVGEEKRKREDSITPERRKSEGVLGTSEEDELKSCFWKRLGWSESSRIIVLDQSDLSD	–	–	Expression Rate (ER) % [3]: 5%
TSP50 (protein, UniProt Q9UI38 40-385, looked up) Probable threonine protease …: AGEAPGALSTADPADQSVQCVPKATCPSSRPRLLWQTPTTQTLPSTTMETQFPVSEGKVDPYRSCGFSYEQDPTLRDPEAVARRWPWMVSVRANGTHICAGTIIASQWVLTVAHCLIWRDVIYSVRVGSPWIDQMTQTASDVPVLQVIMHSRYRAQRFWSWVGQANDIGLLKLKQELKYSNYVRPICLPGTDYVLKDHSRCTVTGWGLSKADGMWPQFRTIQEKEVIILNNKECDNFYHNFTKIPTLVQIIKSQMMCAEDTHREKFCYELTGEPLVCSMEGTWYLVGLVSWGAGCQKSEAPPIYLQVSSYQHWIWDCLNGQALALPAPSRTLLLALPLPLSLLAAL	–	–	Expression Rate (ER) % (TSA expression rate in CRC): 89%; Expression Rate (ER) % (TSA expression rate in GASTRIC cancer): 57%
MAGE-A5 (protein, UniProt P43359 1-124, looked up) Putative melanoma-associated …: MSLEQKSQHCKPEEGLDTQEEALGLVGVQAATTEEQEAVSSSSPLVPGTLGEVPAAGSPGPLKSPQGASAIPTAIDFTLWRQSIKGSSNQEEEGPSTSPDPESVFRAALSKKVADLIHFLLLKY	–	25%	TSA Expression Rate (ER): 9%; Expression Rate (ER) % (TSA expression rate in CRC): 7%
ODF1 (protein, UniProt Q14990 1-250, looked up) Outer dense fiber protein 1: MAALSCLLDSVRRDIKKVDRELRQLRCIDEFSTRCLCDLYMHPYCCCDLHPYPYCLCYSKRSRSCGLCDLYPCCLCDYKLYCLRPSLRSLERKAIRAIEDEKRELAKLRRTTNRILASSCCSSNILGSVNVCGFEPDQVKVRVKDGKVCVSAERENRYDCLGSKKYSYMNICKEFSLPPCVDEKDVTYSYGLGSCVKIESPCYPCTSPCSPCSPCSPCNPCSPCNPCSPYDPCNPCYPCGSRFSCRKMIL	10%	–	–
PAGE2 (protein, UniProt Q7Z2X7 1-111, looked up) P antigen family member 2: MSELLRARSQSSERGNDQESSQPVGSVIVQEPTEEKRQEEEPPTDNQGIAPSGEIENQAVPAFQGPDMEAFQQELALLKIEDEPGDGPDVREGIMPTFDLTKVLEAGDAQP	–	–	Expression Rate (ER) % [3]: 4%
TMEM31 (protein, UniProt Q5JXX7 1-168, looked up) Transmembrane protein 31: MRLTEKSEGEQQLKPNNSNAPNEDQEEEIQQSEQHTPARQRTQRADTQPSRCRLPSRRTPTTSSDRTINLLEVLPWPTEWIFNPYRLPALFELYPEFLLVFKEAFHDISHCLKAQMEKIGLPIILHLFALSTLYFYKFFLPTILSLSFFILLVLLLLLFIIVFILIFF	–	63%	–
PAGE5 (protein, UniProt Q96GU1 1-130, looked up) P antigen family member 5: MQAPWAGNRGWAGTREEVRDMSEHVTRSQSSERGNDQESSQPVGPVIVQQPTEEKRQEEEPPTDNQGIAPSGEIKNEGAPAVQGTDVEAFQQELALLKIEDAPGDGPDVREGTLPTFDPTKVLEAGEGQL	–	22%	Expression Rate (ER) % (TSA expression rate in CRC): 11%; Expression Rate (ER) % (TSA expression rate in Kidney): 44%
ODF3 (protein, UniProt Q96PU9 1-254, looked up) Ciliary microtubule …: MTEEVWMGTWRPHRPRGPIMALYSSPGPKYLIPPTTGFMKHTPTKLRAPAYSFRGAPMLLAENCSPGPRYNVNPKILRTGKDLGPAYSILGRYQTKTMLTPGPGDYFPEKSTKYVFDSAPSHSISARTKAFRVDSTPGPAAYMLPMVMGPNTVGKASQPSFSIKGRSKLGGFSDDLHKTPGPAAYRQTDVRVTKFKAPQYTMAARVEPPGDKTLKPGPGAHSPEKVTLTKPCAPVVTFGIKHSDYMTPLLVDVE	0%	–	TSA Expression Rate (ER): 0%
BAGE-2 (protein, UniProt Q86Y30 18-109, looked up) B melanoma antigen 2: RLMKEESPVVSWRLEPEDGTALDVHFVSTLEPLSNAVKRNVPRCIIILVLQEPTAFRISVTSSCFVQNTLTKLLKDRRKMQTVQCATARETS	–	23%	–
BAGE-3 (protein, UniProt Q86Y29 18-109, looked up) B melanoma antigen 3: RLMKEESPVVSWRLEPEDGTALDVHFVSTLEPLSNAVKRNVPRCIIILVLQEPTPFRISVTSSCFVQNTLTKLLKDRRKMQTVQCATAQETS	–	14%	–
